Measurements published in patent publication EP4772193A1 (Teijin Pharma Limited, dated 2026).
Like-named read-outs stand apart in the source and are kept apart here.

T1: recombinant human soluble gpNMB (recombinant human gpNMB-FLAG-His) (human, UniProt Q14956 23-498)
T1 sequence: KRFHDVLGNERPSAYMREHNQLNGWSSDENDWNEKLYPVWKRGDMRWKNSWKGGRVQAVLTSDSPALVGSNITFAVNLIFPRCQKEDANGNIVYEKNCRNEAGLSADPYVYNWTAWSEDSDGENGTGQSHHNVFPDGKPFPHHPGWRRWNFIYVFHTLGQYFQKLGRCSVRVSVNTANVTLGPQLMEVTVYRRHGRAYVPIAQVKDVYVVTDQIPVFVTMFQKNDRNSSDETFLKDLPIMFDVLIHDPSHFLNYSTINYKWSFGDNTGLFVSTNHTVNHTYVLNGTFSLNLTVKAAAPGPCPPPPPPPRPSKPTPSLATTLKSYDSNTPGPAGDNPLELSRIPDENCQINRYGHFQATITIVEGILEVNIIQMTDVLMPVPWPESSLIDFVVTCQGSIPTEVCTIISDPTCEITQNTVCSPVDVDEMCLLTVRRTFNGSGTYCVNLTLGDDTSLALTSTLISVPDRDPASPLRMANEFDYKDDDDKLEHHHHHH


What was measured:
[1] = biological target: T1, recombinant human soluble gpNMB …; experiment: antigen ELISA
[2] = biological target: T1, recombinant human soluble gpNMB …; experiment: antigen ELISA, vs hGPN18-2_H2L3
[3] = biological target: T1, recombinant human soluble gpNMB …; experiment: antigen ELISA, vs hGPN06-1_H1L1
[4] = biological target: T1, recombinant human soluble gpNMB …; experiment: antigen ELISA; remark: listed apart in the source

Row | EC50 [1] | Relative binding activity [2] | Relative binding activity [3] | EC50 [4] | Binder
1 | 7.55 nM | 0.7 |  |  | hGPN18-2_H2L3 VH Y61A (antibody, V domains shown) VH: QVQLVQSGPGLVQPTQTLTLTCSFSGFSLSTSVMGVGWIRQPSGKGLEWLADIWWDDDKDANPSLKSRLTISKDTSKNQVVLTMTNMDTVDTATYYCARTYYSNYEYYGMDYWGQGTLVTVSS VL: DIVMTQSPDSLAVSLGERATINCRSSQTIILSNGNTYLEWYQQKPGQPPKLLIYKVSNRFSGVPDRFSGSGSGTDFTLTISSLQAEDVAVYYCFQGSHVPFTFGSGTKLEIKR
2 | 7.68 nM | 0.61 |  |  | hGPN18-2_H2L3 VH Y101A (antibody, V domains shown) VH: QVQLVQSGPGLVQPTQTLTLTCSFSGFSLSTSVMGVGWIRQPSGKGLEWLADIWWDDDKDYNPSLKSRLTISKDTSKNQVVLTMTNMDTVDTATYYCARTAYSNYEYYGMDYWGQGTLVTVSS VL: DIVMTQSPDSLAVSLGERATINCRSSQTIILSNGNTYLEWYQQKPGQPPKLLIYKVSNRFSGVPDRFSGSGSGTDFTLTISSLQAEDVAVYYCFQGSHVPFTFGSGTKLEIKR
3 | 60.9 nM | 0.06 |  |  | hGPN18-2_H2L3 VH Y107A (antibody, V domains shown) VH: QVQLVQSGPGLVQPTQTLTLTCSFSGFSLSTSVMGVGWIRQPSGKGLEWLADIWWDDDKDYNPSLKSRLTISKDTSKNQVVLTMTNMDTVDTATYYCARTYYSNYEAYGMDYWGQGTLVTVSS VL: DIVMTQSPDSLAVSLGERATINCRSSQTIILSNGNTYLEWYQQKPGQPPKLLIYKVSNRFSGVPDRFSGSGSGTDFTLTISSLQAEDVAVYYCFQGSHVPFTFGSGTKLEIKR
4 | 49.1 nM | 0.07 |  |  | hGPN18-2_H2L3 VH Y102A (antibody, V domains shown) VH: QVQLVQSGPGLVQPTQTLTLTCSFSGFSLSTSVMGVGWIRQPSGKGLEWLADIWWDDDKDYNPSLKSRLTISKDTSKNQVVLTMTNMDTVDTATYYCARTYASNYEYYGMDYWGQGTLVTVSS VL: DIVMTQSPDSLAVSLGERATINCRSSQTIILSNGNTYLEWYQQKPGQPPKLLIYKVSNRFSGVPDRFSGSGSGTDFTLTISSLQAEDVAVYYCFQGSHVPFTFGSGTKLEIKR
5 | 3.73 nM | 1.05 |  |  | hGPN18-2_H2L3 VH Y112A (antibody, V domains shown) VH: QVQLVQSGPGLVQPTQTLTLTCSFSGFSLSTSVMGVGWIRQPSGKGLEWLADIWWDDDKDYNPSLKSRLTISKDTSKNQVVLTMTNMDTVDTATYYCARTYYSNYEYYGMDAWGQGTLVTVSS VL: DIVMTQSPDSLAVSLGERATINCRSSQTIILSNGNTYLEWYQQKPGQPPKLLIYKVSNRFSGVPDRFSGSGSGTDFTLTISSLQAEDVAVYYCFQGSHVPFTFGSGTKLEIKR
6 | 15.6 nM | 0.47 |  |  | hGPN18-2_H2L3 VH Y105A (antibody, V domains shown) VH: QVQLVQSGPGLVQPTQTLTLTCSFSGFSLSTSVMGVGWIRQPSGKGLEWLADIWWDDDKDYNPSLKSRLTISKDTSKNQVVLTMTNMDTVDTATYYCARTYYSNAEYYGMDYWGQGTLVTVSS VL: DIVMTQSPDSLAVSLGERATINCRSSQTIILSNGNTYLEWYQQKPGQPPKLLIYKVSNRFSGVPDRFSGSGSGTDFTLTISSLQAEDVAVYYCFQGSHVPFTFGSGTKLEIKR
7 | 4.7 nM | 0.91 |  |  | hGPN18-2_H2L3 VH Y108A (antibody, V domains shown) VH: QVQLVQSGPGLVQPTQTLTLTCSFSGFSLSTSVMGVGWIRQPSGKGLEWLADIWWDDDKDYNPSLKSRLTISKDTSKNQVVLTMTNMDTVDTATYYCARTYYSNYEYAGMDYWGQGTLVTVSS VL: DIVMTQSPDSLAVSLGERATINCRSSQTIILSNGNTYLEWYQQKPGQPPKLLIYKVSNRFSGVPDRFSGSGSGTDFTLTISSLQAEDVAVYYCFQGSHVPFTFGSGTKLEIKR
8 |  |  | 0.79 | 0.956 nM | hGPN06-1_H1L1 VH D110A (antibody, V domains shown) VH: QVQLVQSGAEVKKPGASVKVSCKASGYTFTDNWMGWVKQRPGQGLEWIGAIDPSDSFTNYNQNFKGRVTMTVDTSISTAYMELSRLRSDDSAVYFCTRSGYYGSPKLGGAYWGQGTLVTVSS VL: EIVLTQSPSSLSASVGDRVTITCSASSSISYMHWYQQKSGTAPKLLIYSTSNLASGVPSRFSGSGSGTDFTFTISSLQPEDAATYYCHQWNSYPCTFGGGTKLEIK
9 |  |  | 0.92 | 0.587 nM | hGPN06-1_H1L1 VH S99A (antibody, V domains shown) VH: QVQLVQSGAEVKKPGASVKVSCKASGYTFTDNWMGWVKQRPGQGLEWIGAIDPSDSFTNYNQNFKGRVTMTVDTSISTAYMELSRLRSDDSAVYFCTRAGYYGSPKLGGDYWGQGTLVTVSS VL: EIVLTQSPSSLSASVGDRVTITCSASSSISYMHWYQQKSGTAPKLLIYSTSNLASGVPSRFSGSGSGTDFTFTISSLQPEDAATYYCHQWNSYPCTFGGGTKLEIK
10 |  |  | 1 | 0.441 nM | hGPN06-1_H1L1 VH K106A (antibody, V domains shown) VH: QVQLVQSGAEVKKPGASVKVSCKASGYTFTDNWMGWVKQRPGQGLEWIGAIDPSDSFTNYNQNFKGRVTMTVDTSISTAYMELSRLRSDDSAVYFCTRSGYYGSPALGGDYWGQGTLVTVSS VL: EIVLTQSPSSLSASVGDRVTITCSASSSISYMHWYQQKSGTAPKLLIYSTSNLASGVPSRFSGSGSGTDFTFTISSLQPEDAATYYCHQWNSYPCTFGGGTKLEIK
11 |  |  | 1.09 | 1.18 nM | hGPN06-1_H1L1 VH P105A (antibody, V domains shown) VH: QVQLVQSGAEVKKPGASVKVSCKASGYTFTDNWMGWVKQRPGQGLEWIGAIDPSDSFTNYNQNFKGRVTMTVDTSISTAYMELSRLRSDDSAVYFCTRSGYYGSAKLGGDYWGQGTLVTVSS VL: EIVLTQSPSSLSASVGDRVTITCSASSSISYMHWYQQKSGTAPKLLIYSTSNLASGVPSRFSGSGSGTDFTFTISSLQPEDAATYYCHQWNSYPCTFGGGTKLEIK
12 |  |  | 0.71 | 1.05 nM | hGPN06-1_H1L1 VH L107A (antibody, V domains shown) VH: QVQLVQSGAEVKKPGASVKVSCKASGYTFTDNWMGWVKQRPGQGLEWIGAIDPSDSFTNYNQNFKGRVTMTVDTSISTAYMELSRLRSDDSAVYFCTRSGYYGSPKAGGDYWGQGTLVTVSS VL: EIVLTQSPSSLSASVGDRVTITCSASSSISYMHWYQQKSGTAPKLLIYSTSNLASGVPSRFSGSGSGTDFTFTISSLQPEDAATYYCHQWNSYPCTFGGGTKLEIK
13 |  |  | 0.96 | 0.476 nM | hGPN06-1_H1L1 VH G108A (antibody, V domains shown) VH: QVQLVQSGAEVKKPGASVKVSCKASGYTFTDNWMGWVKQRPGQGLEWIGAIDPSDSFTNYNQNFKGRVTMTVDTSISTAYMELSRLRSDDSAVYFCTRSGYYGSPKLAGDYWGQGTLVTVSS VL: EIVLTQSPSSLSASVGDRVTITCSASSSISYMHWYQQKSGTAPKLLIYSTSNLASGVPSRFSGSGSGTDFTFTISSLQPEDAATYYCHQWNSYPCTFGGGTKLEIK
14 |  |  | 0.34 | 4.89 nM | hGPN06-1_H1L1 VH G109A (antibody, V domains shown) VH: QVQLVQSGAEVKKPGASVKVSCKASGYTFTDNWMGWVKQRPGQGLEWIGAIDPSDSFTNYNQNFKGRVTMTVDTSISTAYMELSRLRSDDSAVYFCTRSGYYGSPKLGADYWGQGTLVTVSS VL: EIVLTQSPSSLSASVGDRVTITCSASSSISYMHWYQQKSGTAPKLLIYSTSNLASGVPSRFSGSGSGTDFTFTISSLQPEDAATYYCHQWNSYPCTFGGGTKLEIK
15 |  |  | 1.14 | 0.762 nM | hGPN06-1_H1L1 VH G103A (antibody, V domains shown) VH: QVQLVQSGAEVKKPGASVKVSCKASGYTFTDNWMGWVKQRPGQGLEWIGAIDPSDSFTNYNQNFKGRVTMTVDTSISTAYMELSRLRSDDSAVYFCTRSGYYASPKLGGDYWGQGTLVTVSS VL: EIVLTQSPSSLSASVGDRVTITCSASSSISYMHWYQQKSGTAPKLLIYSTSNLASGVPSRFSGSGSGTDFTFTISSLQPEDAATYYCHQWNSYPCTFGGGTKLEIK
16 |  |  | 0.05 | 53.2 nM | hGPN06-1_H1L1 VH R98A (antibody, V domains shown) VH: QVQLVQSGAEVKKPGASVKVSCKASGYTFTDNWMGWVKQRPGQGLEWIGAIDPSDSFTNYNQNFKGRVTMTVDTSISTAYMELSRLRSDDSAVYFCTASGYYGSPKLGGDYWGQGTLVTVSS VL: EIVLTQSPSSLSASVGDRVTITCSASSSISYMHWYQQKSGTAPKLLIYSTSNLASGVPSRFSGSGSGTDFTFTISSLQPEDAATYYCHQWNSYPCTFGGGTKLEIK
17 |  |  | 0.88 | 0.712 nM | hGPN06-1_H1L1 VH S104A (antibody, V domains shown) VH: QVQLVQSGAEVKKPGASVKVSCKASGYTFTDNWMGWVKQRPGQGLEWIGAIDPSDSFTNYNQNFKGRVTMTVDTSISTAYMELSRLRSDDSAVYFCTRSGYYGAPKLGGDYWGQGTLVTVSS VL: EIVLTQSPSSLSASVGDRVTITCSASSSISYMHWYQQKSGTAPKLLIYSTSNLASGVPSRFSGSGSGTDFTFTISSLQPEDAATYYCHQWNSYPCTFGGGTKLEIK
18 |  |  | 0.06 | 65.8 nM | hGPN06-1_H1L1 VH G100A (antibody, V domains shown) VH: QVQLVQSGAEVKKPGASVKVSCKASGYTFTDNWMGWVKQRPGQGLEWIGAIDPSDSFTNYNQNFKGRVTMTVDTSISTAYMELSRLRSDDSAVYFCTRSAYYGSPKLGGDYWGQGTLVTVSS VL: EIVLTQSPSSLSASVGDRVTITCSASSSISYMHWYQQKSGTAPKLLIYSTSNLASGVPSRFSGSGSGTDFTFTISSLQPEDAATYYCHQWNSYPCTFGGGTKLEIK
